According to the supplement of paper PMC7877785:
± gives the uncertainty stated by the source.

Assay: self-splicing fitness, log relative to wild type (ln ratio); higher = more splicing; Tetrahymena group I intron in knt gene, E. coli kanamycin selection, DiMSum; sequences stand for … in CUCUCU…GGAGGGAAAAGUUAUCAGGCAUGCACCUGGUAGCUAGUCUUUAAACCAAUAGAUUGCAUCGGUUUAAAAGGCAAGACCGUCAAAUUGCGGGAAAGGGGUCAACAGCCGUUCAGUACCAAGUCUCAGGGGAAACUUUGAGAUGGCCUUGCAAAGGGUAUGGUAAUAAGCUGACGGACAUGGUCCUAACCACGCAGCCAAGUCCUAAGUCAACAGAUCUUCUGUUGAUAUGGAUGCAGUUCACAGACUAAAUGUCGGUCGGGGAAGAUGUAUUCUUCUCAUAAGAUAUAGUCGGACCUCUCCUUAAUGGGAGCUAGCGGAUGAAGUGAUGCAACACUGGAGCCGCUGGGAACUAAUUUGUAUGCGAAAGUAUAUUGAUUAGUUUUGGAGUACUCGUGGUCG
Method in brief: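 Six replicate transformations of E. coli BL21(DE3) with a pET-22b(+) library were grown overnight at 37°C or 30°C. The library randomised all eight P1ex-region intron nucleotides, the intron lying in the knt kanamycin-resistance gene, and plates were LB agar with or without 25 μg/mL kanamycin plus 100 μg/mL carbenicillin, 50 μM IPTG and 0.2% rhamnose. Pooled colonies were amplicon-sequenced on an Illumina HiSeq 2500, and fitness is the DiMSum error-weighted combination of wild-type-normalised replicate fold changes, kanamycin versus none.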

Row | Sequence | self-splicing fitness (ln) (30 °C) | self-splicing fitness (ln) (37 °C)
1 | CCAGAGCAAUAUUACGUGGU | -2.75 ± 0.12 | -2.96 ± 0.21
2 | CCAGAGCAAUAUUACGUUCA | -2.45 ± 0.32 | -2.32 ± 0.34
3 | CCAUAGCAAUAUUACGAAAC | -4.09 ± 0.35 | -2 ± 0.29
4 | CCAUAGCAAUAUUACGACCG | -0.0743 ± 0.15 | -0.0737 ± 0.22
5 | CCAUAGCAAUAUUACGACUA |  | -1.71 ± 0.37
6 | CCAUAGCAAUAUUACGAGGU | -3.37 ± 0.26 | -2.67 ± 0.23
7 | CCAUAGCAAUAUUACGAUAG | -0.989 ± 0.06 | -0.387 ± 0.076
8 | CCAUAGCAAUAUUACGCCGU | -4.03 ± 0.34 | -1.91 ± 0.35
9 | CCAUAGCAAUAUUACGCGCU | -3.87 ± 0.27 | -3.05 ± 0.4
10 | CCAUAGCAAUAUUACGCUGC | -3.84 ± 0.3 | -2.25 ± 0.27
11 | CCAUAGCAAUAUUACGGAGC |  | -2.74 ± 0.31
12 | CCAUAGCAAUAUUACGGCGC | -1.25 ± 0.19 | -2.07 ± 0.3
13 | CCAUAGCAAUAUUACGGCGU | -3.98 ± 0.3 | -1.97 ± 0.23
14 | CCAUAGCAAUAUUACGGGAA | -3.49 ± 0.19 | -2.84 ± 0.18
15 | CCAUAGCAAUAUUACGGGCU | -3.65 ± 0.27 | -2.19 ± 0.19
16 | CCAUAGCAAUAUUACGGUAA | -3.53 ± 0.33 | -3.26 ± 0.35
17 | CCAUAGCAAUAUUACGGUGG | -3.66 ± 0.13 | -3.4 ± 0.18
18 | CCAUAGCAAUAUUACGGUUC | -4.2 ± 0.46 | -2.03 ± 0.35
19 | CCAUAGCAAUAUUACGUACG | -0.658 ± 0.07 | 0.351 ± 0.086
20 | CCAUAGCAAUAUUACGUAGU | -3.93 ± 0.24 | -2.14 ± 0.23
21 | CCAUAGCAAUAUUACGUAUC | -2.32 ± 0.15 | -2.01 ± 0.31
22 | CCAUAGCAAUAUUACGUCAG | -1.74 ± 0.13 | -1.61 ± 0.15
23 | CCAUAGCAAUAUUACGUCGG | -3.15 ± 0.19 | -2.02 ± 0.29
24 | CCAUAGCAAUAUUACGUGGG | -4.18 ± 0.16 | -2.96 ± 0.15
25 | CCAUAGCAAUAUUACGUUCC | -3.61 ± 0.39 | -2.52 ± 0.44

Row | Sequence | self-splicing fitness (ln) (30 °C) | self-splicing fitness (ln) (37 °C)
26 | CCCAAGCAAUAUUACGAAGU | -2.98 ± 0.15 | -2.19 ± 0.18
27 | CCCAAGCAAUAUUACGACAC | -2.66 ± 0.2 | -3.25 ± 0.43
28 | CCCAAGCAAUAUUACGACGA | -2.93 ± 0.17 | -1.49 ± 0.14
29 | CCCAAGCAAUAUUACGACGC | -2.8 ± 0.22 | -0.545 ± 0.23
30 | CCCAAGCAAUAUUACGACGG | -3.7 ± 0.21 | -1.61 ± 0.16
31 | CCCAAGCAAUAUUACGAGAC | -3.64 ± 0.21 | -1.4 ± 0.17
32 | CCCAAGCAAUAUUACGAUGA | -1.7 ± 0.19 | -2.69 ± 0.24
33 | CCCAAGCAAUAUUACGCAAA | -3.35 ± 0.13 | -2.71 ± 0.14
34 | CCCAAGCAAUAUUACGCCCC |  | -2.52 ± 0.48
35 | CCCAAGCAAUAUUACGCUCA | -3.73 ± 0.27 | -3.23 ± 0.25
36 | CCCAAGCAAUAUUACGCUUU | -3.91 ± 0.2 | -1.85 ± 0.17
37 | CCCAAGCAAUAUUACGGAAG | -2.89 ± 0.16 | -1.48 ± 0.15
38 | CCCAAGCAAUAUUACGGACU | -3.92 ± 0.26 | -2.6 ± 0.18
39 | CCCAAGCAAUAUUACGGCCU | -3.6 ± 0.35 | -3.09 ± 0.37
40 | CCCAAGCAAUAUUACGGCGC |  | -2.73 ± 0.25
41 | CCCAAGCAAUAUUACGGCGU | -3.85 ± 0.19 | -2.4 ± 0.13
42 | CCCAAGCAAUAUUACGGCUA | -4.01 ± 0.42 | -3.19 ± 0.32
43 | CCCAAGCAAUAUUACGGCUU | -4.22 ± 0.22 | -3.15 ± 0.17
44 | CCCAAGCAAUAUUACGGGCC | -3.98 ± 0.22 | -2.08 ± 0.19
45 | CCCAAGCAAUAUUACGGGUC | -3.19 ± 0.13 | -3.14 ± 0.19
46 | CCCAAGCAAUAUUACGGUAG | -2.45 ± 0.086 | -1.77 ± 0.087
47 | CCCAAGCAAUAUUACGGUCC | -2.66 ± 0.15 | -2.65 ± 0.21
48 | CCCAAGCAAUAUUACGUAUC | -4.03 ± 0.14 | -2.52 ± 0.14
49 | CCCAAGCAAUAUUACGUUCG | -2.11 ± 0.14 | -2.49 ± 0.2
